Experimental data reported in paper PMC7020344.

Biological target: Pyruvate kinase M2 isoform (human (endogenous in A549)) (UniProt P14618)
Test: cross-linking; A549 cells washed with PBS pH 8.0 and treated with BS3 for 1 h at room temperature before lysis in loading buffer; dimers and tetramers by immunoblot; cells with eEF2K depletion, overexpression or A484954

Sequence of Pyruvate kinase M2 isoform, P14618 1-531 (enzyme; other documents disagree on this pair) (P14618 whole entry, canonical isoform): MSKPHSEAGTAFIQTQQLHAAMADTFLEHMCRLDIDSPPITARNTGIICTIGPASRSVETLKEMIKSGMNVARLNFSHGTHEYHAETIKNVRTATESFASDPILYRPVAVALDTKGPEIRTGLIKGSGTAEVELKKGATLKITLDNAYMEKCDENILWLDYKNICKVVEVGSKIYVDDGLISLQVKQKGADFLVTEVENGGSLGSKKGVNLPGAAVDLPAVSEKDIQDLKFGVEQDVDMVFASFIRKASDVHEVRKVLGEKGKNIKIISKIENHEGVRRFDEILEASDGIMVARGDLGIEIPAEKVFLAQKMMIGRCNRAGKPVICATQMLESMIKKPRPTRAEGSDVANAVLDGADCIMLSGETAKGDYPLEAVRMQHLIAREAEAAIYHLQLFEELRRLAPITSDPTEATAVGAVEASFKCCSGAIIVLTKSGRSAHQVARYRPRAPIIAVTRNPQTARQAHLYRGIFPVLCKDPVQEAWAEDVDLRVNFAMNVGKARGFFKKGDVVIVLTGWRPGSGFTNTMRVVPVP

stoichiometry N: 2
Substance: Pyruvate kinase M2 isoform, P14618 1-531 (enzyme; other documents disagree on this pair)
